Source: paper PMC6165294

What was measured:
[1] = target: GST-fusion NaV1.1 IQ domain (amino acids 1909-1936) (human); assay: pull-down; GST-fusion IQ or mutant (2-4 ug) immobilised on GS-4B; CaM or mutant 0.07-7.0 uM; [Ca2+] 100 nM; 150 mM NaCl, 50 mM Tris pH 8.0, 4 h at 4 C; Coomassie densitometry, one- or two-sites Hill fit; apparent constants
[2] = target: GST-fusion NaV1.1 IQ domain phosphorylated by CaMKII (human); assay: pull-down; phosphorylation series (Figure 6, Table 3): GST-IQ on GS-4B beads as control, treated with CaMKIIT286D or with CIP, then CaM 0.07-7 uM; [Ca2+] 500 nM; two-sites Hill fit; apparent constants
[3] = target: GST-fusion NaV1.1 IQ domain (amino acids 1909-1936) (human); assay: as above
[4] = target: GST-fusion NaV1.1 IQ domain dephosphorylated by CIP (human); assay: as above
[5] = target: GST-fusion NaV1.1 IQ domain (amino acids 1909-1936) (human); assay: pull-down; GST-fusion IQ or mutant (2-4 ug) immobilised on GS-4B; CaM or mutant 0.07-7.0 uM; [Ca2+] ≈ free; 150 mM NaCl, 50 mM Tris pH 8.0, 4 h at 4 C; Coomassie densitometry, one- or two-sites Hill fit; apparent constants
[6] = target: GST-fusion NaV1.1 IQ domain phosphorylated by CaMKII (human); assay: pull-down; phosphorylation series (Figure 6, Table 3): GST-IQ on GS-4B beads as control, treated with CaMKIIT286D or with CIP, then CaM 0.07-7 uM; [Ca2+] 100 nM; two-sites Hill fit; apparent constants
[7] = target: GST-fusion NaV1.1 IQ domain (amino acids 1909-1936) (human); assay: as above
[8] = target: GST-fusion NaV1.1 IQ domain dephosphorylated by CIP (human); assay: as above
[9] = target: GST-fusion NaV1.1 IQ domain (amino acids 1909-1936) (human); assay: pull-down; GST-fusion IQ or mutant (2-4 ug) immobilised on GS-4B; CaM or mutant 0.07-7.0 uM; [Ca2+] 500 nM; 150 mM NaCl, 50 mM Tris pH 8.0, 4 h at 4 C; Coomassie densitometry, one- or two-sites Hill fit; apparent constants
[10] = target: GST-fusion NaV1.1 IQ domain phosphorylated by CaMKII (human); assay: pull-down; phosphorylation series (Figure 6, Table 3): GST-IQ on GS-4B beads as control, treated with CaMKIIT286D or with CIP, then CaM 0.07-7 uM; [Ca2+] 2 mM; two-sites Hill fit; apparent constants
[11] = target: GST-fusion NaV1.1 IQ domain (amino acids 1909-1936) (human); assay: as above
[12] = target: GST-fusion NaV1.1 IQ domain dephosphorylated by CIP (human); assay: as above
[13] = target: GST-fusion NaV1.1 IQ domain phosphorylated by CaMKII (human); assay: pull-down; phosphorylation series (Figure 6, Table 3): GST-IQ on GS-4B beads as control, treated with CaMKIIT286D or with CIP, then CaM 0.07-7 uM; [Ca2+] ≈ free; two-sites Hill fit; apparent constants
[14] = target: GST-fusion NaV1.1 IQ domain (amino acids 1909-1936) (human); assay: as above
[15] = target: GST-fusion NaV1.1 IQ domain dephosphorylated by CIP (human); assay: as above
[16] = target: GST-fusion NaV1.1 IQ domain (amino acids 1909-1936) (human); assay: pull-down; GST-fusion IQ or mutant (2-4 ug) immobilised on GS-4B; CaM or mutant 0.07-7.0 uM; [Ca2+] 2 mM; 150 mM NaCl, 50 mM Tris pH 8.0, 4 h at 4 C; Coomassie densitometry, one- or two-sites Hill fit; apparent constants

calmodulin (CaM), human, wild type (from UniProt P0DP23 1-149) (natural protein)
Kd1 (site 1 of the two-sites fit) [1]: 0.063 µM
Kd2 (site 2 of the two-sites fit) [1]: 2.91 µM
Kd1 (site 1 of the two-sites fit) [2]: 0.013 µM
Kd2 (site 2 of the two-sites fit) [2]: 8.17 µM
Kd2 (site 2 of the two-sites fit) [3]: 5.04 µM
Kd2 (site 2 of the two-sites fit) [4]: 3.95 µM
Kd2 (site 2 of the two-sites fit) [5]: 4.58 µM
Kd1 (site 1 of the two-sites fit) [6]: 0.0251 µM
Kd2 (site 2 of the two-sites fit) [6]: 3.03 µM
Kd2 (site 2 of the two-sites fit) [7]: 3.09 µM
Kd1 (site 1 of the two-sites fit) [8]: 0.0365 µM
Kd2 (site 2 of the two-sites fit) [8]: 1.42 µM
Kd1 (site 1 of the two-sites fit) [9]: 0.0433 µM
Kd1 (site 1 of the two-sites fit) [10]: 0.0473 µM
Kd2 (site 2 of the two-sites fit) [10]: 1.95 µM
Kd2 (site 2 of the two-sites fit) [11]: 1.1 µM
Kd1 (site 1 of the two-sites fit) [12]: 0.0383 µM
Kd2 (site 2 of the two-sites fit) [12]: 2.01 µM
Kd1 (site 1 of the two-sites fit) [13]: 0.0361 µM
Kd2 (site 2 of the two-sites fit) [13]: 1.44 µM
Kd1 (site 1 of the two-sites fit) [14]: 0.0376 µM
Kd2 (site 2 of the two-sites fit) [14]: 2.49 µM
Kd1 (site 1 of the two-sites fit) [15]: 0.0371 µM
Kd2 (site 2 of the two-sites fit) [15]: 2.03 µM
Kd1 (site 1 of the two-sites fit) [16]: 0.0682 µM
Kd2 (site 2 of the two-sites fit) [16]: 0.559 µM
